Article PMC10248533, “Structures of Get3d reveal a distinct architecture associated with the emergence of photosynthesis” (The Journal of Biological Chemistry, 2023)

Columns and labels:
Assay in all cases: EnzChek phosphate release assay (PNP-coupled, A360)
[1] = substrate: Nc1ncnc2c1ncn2[C@@H]1O[C@H](COP(=O)(O)OP(=O)(O)OP(=O)(O)O)[C@@H](O)[C@H]1O; assay type: biochemical, Saccharomyces cerevisiae; details: 37 °C, pH 7.5, 5 mM MgCl2, 2.5 μM enzyme, 0-2 mM ATP
[2] = substrate: Nc1ncnc2c1ncn2[C@@H]1O[C@H](COP(=O)(O)OP(=O)(O)OP(=O)(O)O)[C@@H](O)[C@H]1O; assay type: biochemical, Arabidopsis thaliana; details: 37 °C, pH 7.5, 5 mM MgCl2, 15 μM enzyme, 0-2 mM ATP
[3] = substrate: Nc1ncnc2c1ncn2[C@@H]1O[C@H](COP(=O)(O)OP(=O)(O)OP(=O)(O)O)[C@@H](O)[C@H]1O; assay type: biochemical, Nostoc sp. PCC 7120 = FACHB-418; details: 37 °C, pH 7.5, 5 mM MgCl2, 15 μM enzyme, 0-2 mM ATP

B1: ScGet3 (yeast Get3) (Saccharomyces cerevisiae S288C) (protein)
chain: MDLTVEPNLHSLITSTTHKWIFVGGKGGVGKTTSSCSIAIQMALSQPNKQFLLISTDPAHNLSDAFGEKFGKDARKVTGMNNLSCMEIDPSAALKDMNDMAVSRANNNGSDGQGDDLGSLLQGGALADLTGSIPGIDEALSFMEVMKHIKRQEQGEGETFDTVIFDTAPTGHTLRFLQLPNTLSKLLEKFGEITNKLGPMLNSFMGAGNVDISGKLNELKANVETIRQQFTDPDLTTFVCVCISEFLSLYETERLIQELISYDMDVNSIIVNQLLFAENDQEHNCKRCQARWKMQKKYLDQIDELYEDFHVVKMPLCAGEIRGLNNLTKFSQFLNKEYNPITDGKVIYELEDKE
notes: N-terminal His6-TEV tag (pET33b), expressed in E. coli
Protein B1 has a Km [1] of 48 ± 2 µM and a kcat [1] of 2.7 ± 0.02 min⁻¹.

B2: AtGet3d (Arabidopsis thaliana) (protein)
chain: TKFVTFLGKGGSGKTTAAVFAAQHYALAGLSTCLVIHNQDPSAEFLLGSKIGTSPTLINDNLSVIRLETTKMLLEPLKQLKQADARLNMTQGVLEGVVGEELGVLPGMDSIFSMLELERLVGFFRQATRKNHKGKPFDVIIYDGISTEETLRMIGLSSKTRLYAKYLRSLAEKTDLGRLTSPSIMRFVDESMNINSNKSPFDGMTSPAMWDTLERFLETGASAWRDPERFRSFLVMDPNNPMSVKAALRYWGCTVQAGSHVSGAFAISSSHLTSQIPKADFVPLPFASASVPFTITGLDWDKILLDQANSSIRELLSETVSHGTSLTQTVMFDTAKKLVTLFMPGFEKSEIKLYQYRGGSELLIEAGDQRRVIHLPSQIQGKVGGAKFVDRSLIVTMR
notes: delta1-57 (chloroplast transit peptide removed), expressed in E. coli; ATPase assay: N-terminal His6-3C tag; crystal: pET22b(+) NdeI-XhoI construct; homodimer
B2 showed a Km [2] of 351 ± 4 µM and a kcat [2] of 1.10 ± 0.01 min⁻¹.

B3: NosGet3d (Nostoc sp. PCC 7120 = FACHB-418) (protein)
chain: MALILTFLGKSGVARTKIAIAAAKLLASQGKRVLLAGLAEPVLPLLLEQTLTPDPQQIAPNLEVVQFQSSVLLERNWEEVKKLEAQYLRTPIIKEVYGQELVVLPGMDSALALNAIREYDASGKYDAIVYDGTGDAFTLRMLGLPESLSWYVRRFRQLFVNSDLGKTIAESPLIQPLISSFFNVNWTADNFAQPTNQVNNFLDKGKEALADPKRVAAFLVTTADPLEVVSVRYLWGSAQQIGLTIGGVIQVSSQTEGDLSAEFTPLSVTVVPDVTKGDWQPLIDALPNFVEQAEQAPKPITIDTHNRQVRLFLPGFDKKQVKLTQYGPEVTVEAGDQRRNIFLPPALSGRPITGAKFQNNYLIISF
notes: N-terminal His6-TEV tag (pET33b), expressed in E. coli; homodimer
B3 showed a Km [3] of 353 ± 10 µM and a kcat [3] of 0.28 ± 0.01 min⁻¹.
